Data as given in patent US20120128663A1.

Molecular target: FcRn (human) (UniProt P55899)
Assay: Biacore; pH 6.0

Sequence of FcRn (human) (P55899 24-297, chain 1 of 2): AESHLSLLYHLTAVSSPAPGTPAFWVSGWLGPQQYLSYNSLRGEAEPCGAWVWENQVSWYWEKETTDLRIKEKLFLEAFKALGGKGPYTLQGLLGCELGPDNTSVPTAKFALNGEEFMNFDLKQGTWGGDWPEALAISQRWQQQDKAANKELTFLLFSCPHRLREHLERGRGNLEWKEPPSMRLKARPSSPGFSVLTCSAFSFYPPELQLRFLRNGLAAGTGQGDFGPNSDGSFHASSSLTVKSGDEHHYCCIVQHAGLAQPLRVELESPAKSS
Sequence of FcRn (human) (P61769 21-119, chain 2 of 2, further chain): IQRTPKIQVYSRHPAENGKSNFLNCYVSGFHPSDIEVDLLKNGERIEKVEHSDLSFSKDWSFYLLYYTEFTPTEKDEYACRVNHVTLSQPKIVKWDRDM

Row | Substance | Ka [M⁻¹] | Kd [nM] | koff [s⁻¹]
1 | IgG1 N434S | 1.71e+06 | 583 | 
2 | IgG1 Y436V | 1.46e+06 | 683 | 
3 | IgG1 Y436W | 1.42e+06 | 706 | 
4 | IgG1/2 M428L/N434S | 5.92e+06 | 169 | 0.0416
5 | IgG1/2 N434S/A378G |  |  | 0.179
6 | IgG1/2 N434S/A378S |  |  | 0.0902
7 | IgG1/2 N434S/D249G |  |  | 0.142
8 | IgG1/2 N434S/D312K |  |  | 0.221
9 | IgG1/2 N434S/D312R |  |  | 0.231
10 | IgG1/2 N434S/D312Y |  |  | 0.163
11 | IgG1/2 N434S/H285D |  |  | 0.117
12 | IgG1/2 N434S/H433G |  |  | 0.121
13 | IgG1/2 N434S/I253M |  |  | 0.818
14 | IgG1/2 N434S/I253V |  |  | 0.98
15 | IgG1/2 N434S/K248Y |  |  | 0.176
16 | IgG1/2 N434S/K288F |  |  | 0.158
17 | IgG1/2 N434S/K288H |  |  | 0.121
18 | IgG1/2 N434S/K288I |  |  | 0.17
19 | IgG1/2 N434S/K288L |  |  | 0.164
20 | IgG1/2 N434S/K288N |  |  | 0.147
21 | IgG1/2 N434S/K288Q |  |  | 0.162
22 | IgG1/2 N434S/K288W |  |  | 0.154

Row | Substance | Ka [M⁻¹] | Kd [nM] | koff [s⁻¹]
23 | IgG1/2 N434S/K288Y |  |  | 0.162
24 | IgG1/2 N434S/K338H |  |  | 0.142
25 | IgG1/2 N434S/K338R |  |  | 0.141
26 | IgG1/2 N434S/M428I |  |  | 0.117
27 | IgG1/2 N434S/M428V |  |  | 0.153
28 | IgG1/2 N434S/N286D | 2.36e+06 | 423 | 0.0991
29 | IgG1/2 N434S/N286F |  |  | 0.12
30 | IgG1/2 N434S/N286G |  |  | 0.124
31 | IgG1/2 N434S/N286H |  |  | 0.149
32 | IgG1/2 N434S/N286I |  |  | 0.148
33 | IgG1/2 N434S/N286K |  |  | 0.272
34 | IgG1/2 N434S/N286L | 2.69e+06 | 372 | 0.094
35 | IgG1/2 N434S/N286P |  |  | 0.122
36 | IgG1/2 N434S/N286R | 2.5e+06 | 400 | 0.0988
37 | IgG1/2 N434S/N286V |  |  | 0.143
38 | IgG1/2 N434S/N286Y |  |  | 0.103
39 | IgG1/2 N434S/Q438D |  |  | 0.104
40 | IgG1/2 N434S/Q438F |  |  | 0.122
41 | IgG1/2 N434S/Q438G |  |  | 0.146
42 | IgG1/2 N434S/Q438H |  |  | 0.164
43 | IgG1/2 N434S/Q438I |  |  | 0.104
44 | IgG1/2 N434S/Q438N |  |  | 0.113

Row | Substance | Ka [M⁻¹] | Kd [nM] | koff [s⁻¹]
45 | IgG1/2 N434S/Q438S |  |  | 0.106
46 | IgG1/2 N434S/Q438W |  |  | 0.119
47 | IgG1/2 N434S/Q438Y |  |  | 0.139
48 | IgG1/2 N434S/R255E |  |  | 0.213
49 | IgG1/2 N434S/R255F |  |  | 0.136
50 | IgG1/2 N434S/R255G |  |  | 0.189
51 | IgG1/2 N434S/R255H |  |  | 0.189
52 | IgG1/2 N434S/R255I | 2.57e+06 | 390 | 0.0943
53 | IgG1/2 N434S/R255L |  |  | 0.107
54 | IgG1/2 N434S/R255P |  |  | 0.0965
55 | IgG1/2 N434S/R255Q |  |  | 0.186
56 | IgG1/2 N434S/R255S |  |  | 0.169
57 | IgG1/2 N434S/R255W |  |  | 0.107
58 | IgG1/2 N434S/S426F |  |  | 0.285
59 | IgG1/2 N434S/S426H |  |  | 0.134
60 | IgG1/2 N434S/S426I | 2.23e+06 | 448 | 0.0867
61 | IgG1/2 N434S/S426L |  |  | 0.173
62 | IgG1/2 N434S/S426M |  |  | 0.149
63 | IgG1/2 N434S/S426W |  |  | 0.275
64 | IgG1/2 N434S/S426Y |  |  | 0.22
65 | IgG1/2 N434S/T307D |  |  | 0.0749
66 | IgG1/2 N434S/T307E |  |  | 0.0702

Row | Substance | Ka [M⁻¹] | Kd [nM] | koff [s⁻¹]
67 | IgG1/2 N434S/T307F |  |  | 0.087
68 | IgG1/2 N434S/T307G |  |  | 0.0818
69 | IgG1/2 N434S/T307H |  |  | 0.107
70 | IgG1/2 N434S/T307I |  |  | 0.111
71 | IgG1/2 N434S/T307K |  |  | 0.211
72 | IgG1/2 N434S/T307L |  |  | 0.137
73 | IgG1/2 N434S/T307M |  |  | 0.0653
74 | IgG1/2 N434S/T307N |  |  | 0.125
75 | IgG1/2 N434S/T307P |  |  | 0.0702
76 | IgG1/2 N434S/T307R |  |  | 0.193
77 | IgG1/2 N434S/T307V |  |  | 0.092
78 | IgG1/2 N434S/T307W |  |  | 0.0627
79 | IgG1/2 N434S/T307Y |  |  | 0.0847
80 | IgG1/2 N434S/V284D |  |  | 0.116
81 | IgG1/2 N434S/V284E | 2.75e+06 | 363 | 0.0981
82 | IgG1/2 N434S/V309D |  |  | 0.359
83 | IgG1/2 N434S/V309E |  |  | 0.138
84 | IgG1/2 N434S/V309F |  |  | 0.168
85 | IgG1/2 N434S/V309H |  |  | 0.364
86 | IgG1/2 N434S/V309I |  |  | 0.13
87 | IgG1/2 N434S/V309K |  |  | 0.617
88 | IgG1/2 N434S/V309L |  |  | 0.137

Row | Substance | Ka [M⁻¹] | Kd [nM] | koff [s⁻¹]
89 | IgG1/2 N434S/V309P |  |  | 0.16
90 | IgG1/2 N434S/V309Q |  |  | 0.227
91 | IgG1/2 N434S/V309R |  |  | 0.329
92 | IgG1/2 N434S/V309W | 3.07e+06 | 326 | 0.0832
93 | IgG1/2 N434S/V309Y |  |  | 0.129
94 | IgG1/2 N434S/Y436F |  |  | 0.118
95 | IgG1/2 N434S/Y436H | 532000 | 1880 | 
96 | IgG1/2 N434S/Y436I | 5.14e+06 | 194 | 
97 | IgG1/2 N434S/Y436K | 723000 | 1380 | 
98 | IgG1/2 N434S/Y436L | 1.65e+06 | 605 | 
99 | IgG1/2 N434S/Y436V | 3.56e+06 | 281 | 
100 | IgG1/2 N434S/Y436W | 2.91e+06 | 344 | 
101 | IgG1/2 Q311L/N434S | 4.34e+06 | 231 | 
102 | IgG1/2 Q311M/N434S | 4.64e+06 | 215 | 
103 | IgG1/2 Q311V/N434S | 5.77e+06 | 173 | 
104 | IgG1/2 WT | 131000 | 7660 | 
105 | IgG1/2 Y436I | 1.43e+06 | 699 | 
106 | IgG1/2 Y436W | 3.15e+06 | 317 | 
107 | IgG1/2_WT |  | 1180 | 
